Reference: patent publication EP2404612A1, “Diagnosis, prophylaxis and therapy of Alzheimer's disease and other neurodementing disorders” (Balakrishnan, Karthikeyan, priority 2010, dated 2012)

Test: CD spectra analysis of ß-sheet conformation
Type: physicochemical
Conditions: 62.5 µM in sodium carbonate (0.05 mM)/ SDS (37.5 mM) buffer, 20°C, instantly after resuspending in buffer
Procedure: To compare the ß-sheets formed by the wild type and the mutated trimer, respectively, CD spectra analysis was performed. Both peptides were measured at a concentration of 62.5 µM in sodium carbonate (0.05 mM)/ SDS (37.5 mM) buffer with a JASCO J-810 spectroplarimeter (JASCO, Easton, MD, USA). Far-UV CD spectra (190-260 nm) were recorded at 20°C using a quartz cuvette with an optical path length of 1 mm. The scanning speed was set at 20 nm/min with a response time 4 second and bandwidth 2 nm.

**Q.** Which ß-sheet does the source give for “wild type Aβ: wild type Aβ peptide compared with mutated Aβ (1-40; G29Ile,G33Ile) in CD spectra; length not stated” here?
**A.** 1%
